Square brackets hold non-standard residues; d marks the D form. Ends that are not written are not given here. pY = N[C@@H](Cc1ccc(OP(=O)(O)O)cc1)C(=O)O
Tests used:
Experiment in all cases: fluorescence polarisation; Btk SH2 WT and mutants at several concentrations with 1 µM FITC-labeled peptide; Tris 40 mM pH 8, 150 mM NaCl, 1 mM DTT; 1:1 binding model
Conditions in all cases: both partners purified
[1] = target: T1, Btk SH2 domain, wild-type (recombinant) (human, UniProt Q06187 271-383)
T1 construct: SH2 domain of human Bruton's tyrosine kinase (Btk); the construct is in PDB 6HTF; Construct limits are not in the text; also called Btk SH2 WT; human Btk SH2 domain; source: E. coli Bl21(DE3), purified (Ni-NTA, TEV cleavage, SEC); not shown: His6, N-terminal, cleaved; GST, N-terminal, cleaved

[2] = target: T2, Btk SH2 domain K296E (XLA mutation) (human, UniProt Q06187 271-383, K296E)
T2 construct: SH2 domain of human Btk with the XLA patient mutation K296E; Same limits as m1; source: E. coli Bl21(DE3), purified (Ni-NTA, TEV cleavage, SEC); not shown: His6, N-terminal, cleaved; GST, N-terminal, cleaved

[3] = target: T3, Btk SH2 domain H364D (XLA mutation) (human, UniProt Q06187 271-383, H364D)
T3 construct: SH2 domain of human Btk with the XLA patient mutation H364D; Same limits as m1; source: E. coli Bl21(DE3), purified (Ni-NTA, TEV cleavage, SEC); not shown: His6, N-terminal, cleaved; GST, N-terminal, cleaved

[4] = target: T4, Btk SH2 domain S371P (XLA mutation) (human, UniProt Q06187 271-383, S371P)
T4 construct: SH2 domain of human Btk with the XLA patient mutation S371P; Same limits as m1; source: E. coli Bl21(DE3), purified (Ni-NTA, TEV cleavage, SEC); not shown: His6, N-terminal, cleaved; GST, N-terminal, cleaved

[5] = target: T5, Btk SH2 domain R372G (XLA mutation) (human, UniProt Q06187 271-383, R372G)
T5 construct: SH2 domain of human Btk with the XLA patient mutation R372G; Same limits as m1; source: E. coli Bl21(DE3), purified (Ni-NTA, TEV cleavage, SEC); not shown: His6, N-terminal, cleaved; GST, N-terminal, cleaved

[6] = target: T6, Btk SH2 domain K374N (XLA mutation) (human, UniProt Q06187 271-383, K374N)
T6 construct: SH2 domain of human Btk with the XLA patient mutation K374N; Same limits as m1; also called Btk SH2 K374N; source: E. coli Bl21(DE3), purified (Ni-NTA, TEV cleavage, SEC); not shown: His6, N-terminal, cleaved; GST, N-terminal, cleaved
T6 sequence (Q06187 271-383 K374N): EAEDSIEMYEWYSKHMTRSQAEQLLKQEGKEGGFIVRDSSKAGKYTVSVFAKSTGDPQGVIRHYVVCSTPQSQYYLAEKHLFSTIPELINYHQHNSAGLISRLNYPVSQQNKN

T4 sequence (Q06187 271-383 S371P): as the sequence (Q06187 271-383 K374N) above, with S101P, N104K counted along it
T1 sequence (Q06187 271-383): as the sequence (Q06187 271-383 K374N) above, with N104K counted along it
T3 sequence (Q06187 271-383 H364D): as the sequence (Q06187 271-383 K374N) above, with H94D, N104K counted along it
T5 sequence (Q06187 271-383 R372G): as the sequence (Q06187 271-383 K374N) above, with R102G, N104K counted along it
T2 sequence (Q06187 271-383 K296E): as the sequence (Q06187 271-383 K374N) above, with K26E, N104K counted along it

binding result [1]: binds
binding result [2]: binds
binding result [3]: binds
binding result [4]: binds
binding result [5]: binds
binding result [6]: binds
B1: FITC-labeled pY-peptide (ADNDpYIIPLPD) (peptide)
peptide: ADND[pY]IIPLPD
modifications: also: FITC label, end not given here
notes: also called fluorescently labeled pY-peptide
